Data published in publication PMC9732815 (Cell reports, 2022).
Substitutions are numbered along the chain they refer to. Read-outs that look alike come from different tables or passages of the source.

Experiments:
[1] = target: T1, Apn2Cat(D222N/E59Q) (Saccharomyces cerevisiae, UniProt P38207 1-407, E59Q;D222N); experiment: X-ray crystallography
T1 sequence: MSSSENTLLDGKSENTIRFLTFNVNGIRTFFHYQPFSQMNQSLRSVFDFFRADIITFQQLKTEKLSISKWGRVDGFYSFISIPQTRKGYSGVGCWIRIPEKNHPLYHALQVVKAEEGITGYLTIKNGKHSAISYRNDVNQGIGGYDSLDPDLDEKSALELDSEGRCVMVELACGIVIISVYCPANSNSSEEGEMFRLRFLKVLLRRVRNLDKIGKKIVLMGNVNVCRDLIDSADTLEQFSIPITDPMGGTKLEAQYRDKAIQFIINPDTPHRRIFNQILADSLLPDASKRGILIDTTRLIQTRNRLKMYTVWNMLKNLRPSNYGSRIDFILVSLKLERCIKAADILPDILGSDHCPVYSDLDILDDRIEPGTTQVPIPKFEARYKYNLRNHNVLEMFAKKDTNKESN

[2] = target: the molecule itself; experiment: crystal structure
[3] = target: T1, Apn2Cat(D222N/E59Q); experiment: X-ray crystallography; remark: listed apart in the source

B1: duplex 2 (strand A + strand B) (dsDNA)
DNA 1: TCCGAAATTTCGG
DNA 2: CCGAAATTTCGGA
modifications: five phosphorothioate bonds at the 3' end of each strand (A TCCGAAAT*T*T*C*G*G; B CCGAAATT*T*C*G*G*A)
- binding result [1]: binds

B2: Recombinant S. cerevisiae Apn2^Cat (residues 1–407) (domain or fragment, UniProt P38207 1-407, looked up)
chain: T1 sequence with Q59E, N222D
- stoichiometry N [2]: 2

B3: duplex 1 (strand A self-annealed) (dsDNA)
DNA 1: TCCGAAATTTCGG
DNA 2: TCCGAAATTTCGG
modifications: five phosphorothioate bonds at the 3' end of each strand (TCCGAAAT*T*T*C*G*G)
- binding result [3]: binds
